The source of these data is PMC7492729, “CsrA-Mediated Translational Activation of ymdA Expression in Escherichia coli”.

Broadly, the Kd is the free concentration of one partner at which half of the binding sites on the other are occupied at equilibrium, for simple one-to-one binding.

Conditions in all cases: protein: recombinant; tags: His6 (C-terminal, as named CsrA-H6); chain copies: 2; label: 5'-32P
Data set [1] addresses T1, CsrA-H6 (Escherichia coli, UniProt P69913 1-61). The experiment in a line: EMSA; 10 mM MgCl2, 40 ng yeast tRNA; 10 mM Tris-HCl pH 7.5, 10 mM MgCl2, 100 mM KCl, 40 ng yeast tRNA per 10 ul, 7.5% glycerol, 0.1 mg/ml xylene cyanol, 0.1 nM RNA (2 nM RNA plus 1 ug acetylated BSA for footprint), 37 C 30 min. In general terms: A gel shift assay detects complexes by their altered migration in electrophoresis.

The target in data set [2] is T1, CsrA-H6. Description: RNase T1 footprinting; 10 mM MgCl2; BS1 and BS2 protected, BS* and SD GGA not; 10 mM Tris-HCl pH 7.5, 10 mM MgCl2, 100 mM KCl, 40 ng yeast tRNA per 10 ul, 7.5% glycerol, 0.1 mg/ml xylene cyanol, 0.1 nM RNA (2 nM RNA plus 1 ug acetylated BSA for footprint), 37 C 30 min.
The target of data set [3] is T1, CsrA-H6. Description: RNase T1 footprinting; 10 mM MgCl2; binds BS1 in absence of BS2; 10 mM Tris-HCl pH 7.5, 10 mM MgCl2, 100 mM KCl, 40 ng yeast tRNA per 10 ul, 7.5% glycerol, 0.1 mg/ml xylene cyanol, 0.1 nM RNA (2 nM RNA plus 1 ug acetylated BSA for footprint), 37 C 30 min.

T1 sequence (P69913 whole entry): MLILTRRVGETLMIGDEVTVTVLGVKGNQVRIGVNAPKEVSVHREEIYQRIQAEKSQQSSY

B1: ymdA leader RNA (EMSA) (structured_RNA)
RNA: AAGAUGAAUCUGGAGAGAAUGGUCUGCUGCGAAUCAGCCAACCUGAAAGUAUGGAUAACACAACCCUCAAGGAUGACUAAUCAUUGAGGAAAUAGAAUAAA
Consider B1, for which the dissociation constant (Kd) with CsrA-H6 [1] was 48 ± 3 nM.

B2: ymdA leader RNA (footprint) (structured_RNA)
RNA: GUCUUAAUUUGUUGAAAUAUCGAGCAUAAGAUGAAUCUGGAGAGAAUGGUCUGCUGCGAAUCAGCCAACCUGAAAGUAUGGAUAACACAACCCUCAAGGAUGACUAAUCAUUGAGGAAAUAGAAUAAA
As for B2, in the data set with CsrA-H6 [2], the binding result is listed as “binds”.

B3: ymdA leader RNA BS2 mutant (footprint) (structured_RNA)
RNA: GUCUUAAUUUGUUGAAAUAUCGAGCAUAAGAUGAAUCUGGAGAGAAUGGUCUGCUGCGAAUCAGCCAACCUGAAAGUAUGGAUAACACAACCCUCAAAGAUGACUAAUCAUUGAGGAAAUAGAAUAAA
As for B3, the binding result in the data set with CsrA-H6 [3] is given as “binds”.
